Measurements from publication PMC3948368.

Target: EGFRvIII (on U87-EGFRvIII cells) del30-297 (UniProt P00533)
Assay: cell ELISA
Conditions: apparent Kd, fixed U87-EGFRvIII cells, 3% BSA in PBST block (PBS, 0.01% Tween 20, pH 7.4), 37 C 40 min, SELEX binding buffer: PBS, 5 mM MgCl2, glucose, yeast tRNA, salmon …

| Sequence | Kd [nM] |
| --- | --- |
| ATCCAGAGTGACGCAGCATGAATCTTTTCTTTTGGTTTTGATATTTATAGTTGGTGAATGGACACGGTGGCTTAGT [U8] | 4.35 |
| ATCCAGAGTGACGCAGCATTTTGACGCTTTATCCTTTTCTTATGGCGGGATAGTTTCGTGGACACGGTGGCTTAGT [U2] | 3.37 |
